Laboratory results as given in article PMC6383945, “Elk1 affects katanin and spastin proteins via differential transcriptional and post-transcriptional regulations”.

T1: Elk1-db (ETS DNA-binding domain) (Homo sapiens, UniProt P19419 1-96)
T1 sequence: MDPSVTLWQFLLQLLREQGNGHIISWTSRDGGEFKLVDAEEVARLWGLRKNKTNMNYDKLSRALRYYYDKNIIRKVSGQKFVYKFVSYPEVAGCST

B1: KATNA1 UTR1_WT (+113/+122) (dsDNA)
DNA 1: CGAGGTCGTCCCCGGCACCGGAAGTGACCCTGGCGGGTTTGT
DNA 2: ACAAACCCGCCAGGGTCACTTCCGGTGCCGGGGACGACCTCG
B2: KATNA1 UTR2_Mut (dsDNA)
DNA 1: GACTGGGTCAGGCCCTCTCCTTCTATTGCCGGGATCTCCACTC
DNA 2: GAGTGGAGATCCCGGCAATAGAAGGAGAGGGCCTGACCCAGTC
B3: KATNA1 Promoter_Mut (dsDNA)
DNA 1: AGGGTGGAGATTGAGACCAAGAAGGACCCTGTGCAGTACATAT
DNA 2: ATATGTACTGCACAGGGTCCTTCTTGGTCTCAATCTCCACCCT
B4: KATNA1 UTR2_WT (+253/+262) (dsDNA)
DNA 1: GACTGGGTCAGGCCCTCCTTCCTCGCTGCCGGGATCTCCACTC
DNA 2: GAGTGGAGATCCCGGCAGCGAGGAAGGAGGGCCTGACCCAGTC
B5: KATNA1 UTR1_Mut (dsDNA)
DNA 1: CGAGGTCGTCCCCGGTGTTAAGGATGACCCTGGCGGGTTTGT
DNA 2: ACAAACCCGCCAGGGTCATCCTTAACACCGGGGACGACCTCG
B6: KATNA1 Promoter_WT (-428/-419) (dsDNA)
DNA 1: AGGGTGGAGATTGAGACTGGAGGAAGCCCTGTGCAGTACATAT
DNA 2: ATATGTACTGCACAGGGCTTCCTCCAGTCTCAATCTCCACCCT

Molecular target: T1, Elk1-db (ETS DNA-binding domain)
Experiment: EMSA; 10 mM Tris pH 7.5, 50 mM KCl, 1 mM DTT, 1 ug poly(dI-dC), 5% glycerol, 1 mM EDTA, 0.3% BSA, protease inhibitors; 20 fmol probe, 300 ng Elk1-db; 20 min room temperature; 6% native PAGE in 0.5X TBE at 4 C
Settings: protein: recombinant; tags: 6xHis; label: 3' biotin on both strands; blunt before labelling

**Q.** Does B1 bind?
**A.** binds

**Q.** Does B2 bind?
**A.** no binding

**Q.** Does B3 bind?
**A.** no binding

**Q.** Does B4 bind?
**A.** no binding

**Q.** Does B5 bind?
**A.** no binding

**Q.** Does B6 bind?
**A.** no binding
